Results reported in publication PMC12102759.

B1: RNF115 peptide 67-82 (E3 ubiquitin-protein ligase RNF115), 16-mer library wild type / MDM2 SWIB (MDM2 SWIB/MDM2 domain, residues 17-125) (parent)
chain 1: TTTHFAELWGHLDHTM
chain 2: SQIPASEQETLVRPKPLLLKLLKSVGAQKDTYTMKEVLFYLGQYIMTKRLYDEKQQHIVYCSNDLLGDLFGVPSFSVKEHRKIYTMIYRNLVVVNQQESSDSGTSVSEN
B2: ATXN2 peptide 911-926 (Ataxin-2), 16-mer library wild type / PABPC1 PABC (PABPC1 PABC domain, residues 544-623) (parent)
chain 1: KSTLNPNAKEFNPRSF
chain 2: PLTASMLASAPPQEQKQMLGERLFPLIQAMHPTLAGKITGMLLEIDNSELLHMLESPESLRSKVDEAVAVLQAHQAKEAA

Variants of: B1
Assay: proteomic peptide phage display deep mutational scan (ProP-PD DMS): M13 P8 16-mer library selected against immobilised GST-tagged bait for four days (rounds), NGS of the eluted pools per day and pseudo-replica
Details: with MDM2 SWIB (MDM2 SWIB/MDM2 domain, residues 17-125); bait immobilised on MaxiSorp plates (10 µg), library pre-cleared on GST, 2 h binding at 4 °C, five washes; one round per day, days 1-4; value from days 2 and 3; keep out of graded; scale: average fractional NGS count over selection days 2 and 3
For chain 1 T2W, the screen value was 2.98e-05.
For chain 1 T2F, the screen value was 4.31e-05.
chain 1 T2N gave a screen value of 7.17e-05.
With chain 1 L12T the screen value was 0.
Variant chain 1 L12V has a screen value of 1.9e-05.
chain 1 L12K showed a screen value of 0.
In the case of chain 1 L12S, the screen value is reported as 0.
Work on chain 1 L12F yielded a screen value of 0.
Variant chain 1 L8S has a screen value of 0.
chain 1 T15R was tested, and the screen value was 5.55e-05.
In the case of chain 1 T15P, the screen value is reported as 7.64e-05.
chain 1 T15E showed a screen value of 4.41e-05.
chain 1 T15N gave a screen value of 4.79e-05.
Work on chain 1 T15K yielded a screen value of 2.45e-05.
In the case of chain 1 W9Q, the screen value is reported as 0.
Variant chain 1 W9D has a screen value of 0.
Work on chain 1 W9Y yielded a screen value of 0.
Variant chain 1 W9T has a screen value of 7.05e-05.
chain 1 W9G was tested, and the screen value was 0.000116.
chain 1 W9K gave a screen value of 4.89e-05.
chain 1 W9P was tested, and the screen value was 3.98e-05.
For chain 1 W9L, the screen value was 0.
chain 1 W9H showed a screen value of 0.
chain 1 W9N showed a screen value of 0.
Work on chain 1 W9A yielded a screen value of 0.
chain 1 M16S was tested, and the screen value was 0.000115.
chain 1 M16R was tested, and the screen value was 0.000117.
For chain 1 M16K, the screen value was 0.
With chain 1 M16G the screen value was 4.72e-05.
chain 1 M16H gave a screen value of 4.26e-05.
With chain 1 T3N the screen value was 6.02e-05.

Variants of: B2
Assay: as above
Details: with PABPC1 PABC (PABPC1 PABC domain, residues 544-623); bait immobilised on MaxiSorp plates (10 µg), library pre-cleared on GST, 2 h binding at 4 °C, five washes; one round per day, days 1-4; value from days 2 and 3; scale: average fractional NGS count over selection days 2 and 3
In the case of chain 1 N5Q, the screen value is reported as 0.
With chain 1 N5A the screen value was 0.
Work on chain 1 N5D yielded a screen value of 0.
Work on chain 1 N5S yielded a screen value of 2.4e-05.
In the case of chain 1 P6Y, the screen value is reported as 0.
Work on chain 1 P6H yielded a screen value of 4.64e-05.
chain 1 P6L was tested, and the screen value was 0.000389.
chain 1 P6I was tested, and the screen value was 0.000875.
chain 1 P6A showed a screen value of 0.
chain 1 P6V gave a screen value of 0.00101.
chain 1 N12I showed a screen value of 0.000365.
chain 1 N12Q showed a screen value of 0.000365.
In the case of chain 1 N12D, the screen value is reported as 0.00012.
Work on chain 1 N12H yielded a screen value of 0.000518.
With chain 1 N12F the screen value was 0.000678.
chain 1 N12E gave a screen value of 0.000774.
Variant chain 1 N12G has a screen value of 0.000277.
With chain 1 N12L the screen value was 0.
chain 1 N12V was tested, and the screen value was 0.00267.
Variant chain 1 N12P has a screen value of 0.
Variant chain 1 N12S has a screen value of 0.000112.
Variant chain 1 N12M has a screen value of 0.00106.
In the case of chain 1 N12T, the screen value is reported as 0.000331.
chain 1 N12W gave a screen value of 0.00202.
chain 1 N12K showed a screen value of 0.000122.
chain 1 N12A gave a screen value of 0.00161.
chain 1 P13F was tested, and the screen value was 0.00012.
chain 1 P13H showed a screen value of 0.
chain 1 P13W gave a screen value of 0.000637.
chain 1 P13Y showed a screen value of 0.000164.
For chain 1 P13L, the screen value was 0.00026.
Variant chain 1 P13N has a screen value of 0.000178.
Variant chain 1 P13Q has a screen value of 0.00338.
In the case of chain 1 P13E, the screen value is reported as 0.000246.
Work on chain 1 P13T yielded a screen value of 1.02e-05.
chain 1 P13V gave a screen value of 0.031.
chain 1 P13G gave a screen value of 0.00243.
In the case of chain 1 P13I, the screen value is reported as 0.000517.
With chain 1 P13M the screen value was 0.
In the case of chain 1 P13D, the screen value is reported as 1.92e-05.
Work on chain 1 P13A yielded a screen value of 0.000212.
chain 1 A8S gave a screen value of 0.
For chain 1 A8V, the screen value was 0.000222.
For chain 1 A8R, the screen value was 0.
chain 1 A8I showed a screen value of 0.
Variant chain 1 F16S has a screen value of 0.000134.
Variant chain 1 F16I has a screen value of 0.000285.
chain 1 F16L was tested, and the screen value was 0.00151.
Work on chain 1 F16V yielded a screen value of 0.000892.
For chain 1 F16M, the screen value was 0.000149.
For chain 1 F16D, the screen value was 0.000103.
With chain 1 F16W the screen value was 8.6e-05.
Work on chain 1 F16Y yielded a screen value of 0.000515.
For chain 1 F16H, the screen value was 0.000158.
Variant chain 1 F16N has a screen value of 0.000241.
With chain 1 F16A the screen value was 0.00041.
chain 1 F16T showed a screen value of 0.000108.
chain 1 L4Y was tested, and the screen value was 0.
chain 1 L4M showed a screen value of 0.000137.
For chain 1 L4F, the screen value was 0.
chain 1 R14N gave a screen value of 0.000117.
With chain 1 R14S the screen value was 0.00103.
Variant chain 1 R14E has a screen value of 0.000187.
chain 1 R14P was tested, and the screen value was 0.00013.
chain 1 R14A gave a screen value of 0.00158.
Variant chain 1 R14V has a screen value of 0.000569.
With chain 1 R14M the screen value was 9.46e-05.
chain 1 R14T gave a screen value of 0.00309.
With chain 1 R14G the screen value was 0.0017.
Variant chain 1 R14H has a screen value of 0.000471.
Variant chain 1 R14F has a screen value of 0.000523.
In the case of chain 1 R14Y, the screen value is reported as 0.000722.
For chain 1 R14W, the screen value was 0.00286.
chain 1 R14Q gave a screen value of 0.00156.
chain 1 E10R showed a screen value of 0.
Work on chain 1 E10S yielded a screen value of 0.
Work on chain 1 E10T yielded a screen value of 0.000321.
chain 1 E10V was tested, and the screen value was 0.000349.
chain 1 E10Q gave a screen value of 0.
chain 1 E10H was tested, and the screen value was 0.000717.
chain 1 E10D was tested, and the screen value was 0.
chain 1 F11Y was tested, and the screen value was 0.000235.
In the case of chain 1 F11V, the screen value is reported as 0.
For chain 1 F11W, the screen value was 0.000158.
With chain 1 S15F the screen value was 0.000136.
chain 1 S15D showed a screen value of 0.
chain 1 S15A showed a screen value of 0.000153.
chain 1 S15E showed a screen value of 0.000122.
Variant chain 1 S15G has a screen value of 0.
With chain 1 S15H the screen value was 0.000677.
chain 1 S2D showed a screen value of 0.000114.
With chain 1 S2I the screen value was 0.000118.
For chain 1 S2N, the screen value was 0.
For chain 1 S2V, the screen value was 0.000881.
With chain 1 S2E the screen value was 0.000105.
For chain 1 S2G, the screen value was 0.000237.
In the case of chain 1 S2H, the screen value is reported as 0.00026.
chain 1 S2T gave a screen value of 0.00018.
chain 1 S2P was tested, and the screen value was 0.00164.
For chain 1 S2Y, the screen value was 0.00178.
Work on chain 1 S2M yielded a screen value of 0.00187.
Work on chain 1 S2F yielded a screen value of 0.000554.
In the case of chain 1 S2L, the screen value is reported as 5.2e-05.
For chain 1 S2A, the screen value was 0.000338.
chain 1 N7R was tested, and the screen value was 5.23e-05.
chain 1 N7Q was tested, and the screen value was 0.000449.
Work on chain 1 N7I yielded a screen value of 0.00577.
chain 1 N7F gave a screen value of 0.00073.
chain 1 N7Y was tested, and the screen value was 5.67e-05.
Variant chain 1 N7H has a screen value of 0.000328.
chain 1 N7G was tested, and the screen value was 0.
Variant chain 1 N7V has a screen value of 0.000181.
In the case of chain 1 N7D, the screen value is reported as 0.000764.
chain 1 N7M showed a screen value of 0.000289.
chain 1 N7T gave a screen value of 1.57e-05.
chain 1 N7W gave a screen value of 0.
chain 1 N7L was tested, and the screen value was 0.000441.
chain 1 N7A showed a screen value of 0.000105.
With chain 1 N7E the screen value was 0.000331.
Work on chain 1 N7S yielded a screen value of 0.000455.
With chain 1 K9Q the screen value was 0.001.
Work on chain 1 K9E yielded a screen value of 0.00113.
Variant chain 1 K9A has a screen value of 0.000101.
With chain 1 K9G the screen value was 0.000242.
For chain 1 K9P, the screen value was 0.000159.
chain 1 K9F was tested, and the screen value was 0.000915.
With chain 1 K9Y the screen value was 0.000884.
Work on chain 1 K9R yielded a screen value of 0.00121.
Variant chain 1 K9T has a screen value of 0.000868.
chain 1 K9M was tested, and the screen value was 0.0042.
With chain 1 K9D the screen value was 0.000277.
With chain 1 K9I the screen value was 0.0153.
In the case of chain 1 K9H, the screen value is reported as 0.00168.
Work on chain 1 K9L yielded a screen value of 0.00284.
In the case of chain 1 K9N, the screen value is reported as 0.00453.
For chain 1 K9S, the screen value was 0.0022.
